Holding throughout (assay): SEC-MALS; size exclusion chromatography with multi-angle light scattering of Ni-purified uricases dialyzed into PBS; noncovalent molecular weight compared with the theoretical tetramer
In general terms: Size exclusion chromatography separates by hydrodynamic size, large species first.

The target of data set [1] is Solibacter usitatus uricase (Solibacter usitatus).
Data set [2] deals with Granulicella tundricola uricase (Granulicella tundricola).
Data set [3] addresses Deinococcus radiodurans uricase (Deinococcus radiodurans).
Data set [4] deals with Terriglobus saanensis uricase (Terriglobus saanensis).
Data set [5] addresses Kyrpidia tusciae uricase (Kyrpidia tusciae).
Data set [6] has as its target Deinococcus geothermalis uricase (Deinococcus geothermalis).
Data set [7] concerns the molecule itself.

Usually stoichiometry N stands for the number of molecules, sites or subunits per partner or assembly. Solibacter usitatus uricase (enzyme) yielded a stoichiometry N in data set [1] of 4.

Molecule “Granulicella tundricola uricase (enzyme)” returned a stoichiometry N in data set [2] of 4.

Molecule “Deinococcus radiodurans uricase (enzyme)” registered a stoichiometry N in data set [3] of 4.

Molecule Terriglobus saanensis uricase (enzyme) gave a stoichiometry N in data set [4] of 4.

Molecule Kyrpidia tusciae uricase (enzyme) registered a stoichiometry N in data set [5] of 4.

For the molecule “Deinococcus geothermalis uricase (enzyme)”, the stoichiometry N in data set [6] is 4.

B1: Arthrobacter globiformis uricase (C-terminally truncated by 11 amino acids, N-terminal His tag) (enzyme, UniProt D0VWQ1 1-291, looked up)
chain: MTATAETSTGTKVVLGQNQYGKAEVRLVKVTRNTARHEIQDLNVTSQLRGDFEAAHTAGDNAHVVATDTQKNTVYAFARDGFATTEEFLLRLGKHFTEGFDWVTGGRWAAQQFFWDRINDHDHAFSRNKSEVRTAVLEISGSEQAIVAGIEGLTVLKSTGSEFHGFPRDKYTTLQETTDRILATDVSARWRYNTVEVDFDAVYASVRGLLLKAFAETHSLALQQTMYEMGRAVIETHPEIDEIKMSLPNKHHFLVDLQPFGQDNPNEVFYAADRPYGLIEATIQREGSRAD
notes: Synthetic gene in a modified pET15b-based vector; also called RGD-containing Arthrobacter globiformis uricase; uricase containing RGD
As for B1, the “stoichiometry N” value in data set [7] is 4.

Values taken from article PMC5176304 (PLoS ONE, 2016).
